Test results published in patent US20230025129A1 (KYMAB, published 2023).
Where a chain is given by its changes, count along the chain named. Names and notes keep the numbering of the source.

T1: human matriptase-2 mask ECD protein his tag (human, UniProt Q8IU80 78-576)
T1 construct: MTP-2 ECD without the serine protease domain, with C-terminal linker and His tag; also called headless huMTP-2 ECD 78-576 aa; headless human MTP-2 ECD
T1 sequence: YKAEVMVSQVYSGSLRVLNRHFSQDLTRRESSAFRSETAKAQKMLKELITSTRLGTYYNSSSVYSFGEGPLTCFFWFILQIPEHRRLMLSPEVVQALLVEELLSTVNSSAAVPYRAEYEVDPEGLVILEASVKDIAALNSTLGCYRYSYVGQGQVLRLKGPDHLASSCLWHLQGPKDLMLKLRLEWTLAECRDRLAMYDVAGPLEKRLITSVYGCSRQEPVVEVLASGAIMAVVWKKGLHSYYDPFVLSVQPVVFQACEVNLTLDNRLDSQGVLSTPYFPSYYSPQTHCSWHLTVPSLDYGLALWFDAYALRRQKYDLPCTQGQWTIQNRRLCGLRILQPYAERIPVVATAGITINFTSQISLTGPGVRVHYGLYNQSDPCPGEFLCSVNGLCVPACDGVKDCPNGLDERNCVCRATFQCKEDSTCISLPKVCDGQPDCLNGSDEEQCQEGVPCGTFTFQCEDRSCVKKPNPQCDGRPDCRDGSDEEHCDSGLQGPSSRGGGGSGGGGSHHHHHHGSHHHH

T2: mouse matriptase-2 ECD protein his tag (mouse, UniProt Q9DBI0 80-811)
T2 construct: aa 80-811 of Q9DBI0 with C-terminal linker and His tag; also called mouse MTP-2 ECD; moMTP-2
T2 sequence: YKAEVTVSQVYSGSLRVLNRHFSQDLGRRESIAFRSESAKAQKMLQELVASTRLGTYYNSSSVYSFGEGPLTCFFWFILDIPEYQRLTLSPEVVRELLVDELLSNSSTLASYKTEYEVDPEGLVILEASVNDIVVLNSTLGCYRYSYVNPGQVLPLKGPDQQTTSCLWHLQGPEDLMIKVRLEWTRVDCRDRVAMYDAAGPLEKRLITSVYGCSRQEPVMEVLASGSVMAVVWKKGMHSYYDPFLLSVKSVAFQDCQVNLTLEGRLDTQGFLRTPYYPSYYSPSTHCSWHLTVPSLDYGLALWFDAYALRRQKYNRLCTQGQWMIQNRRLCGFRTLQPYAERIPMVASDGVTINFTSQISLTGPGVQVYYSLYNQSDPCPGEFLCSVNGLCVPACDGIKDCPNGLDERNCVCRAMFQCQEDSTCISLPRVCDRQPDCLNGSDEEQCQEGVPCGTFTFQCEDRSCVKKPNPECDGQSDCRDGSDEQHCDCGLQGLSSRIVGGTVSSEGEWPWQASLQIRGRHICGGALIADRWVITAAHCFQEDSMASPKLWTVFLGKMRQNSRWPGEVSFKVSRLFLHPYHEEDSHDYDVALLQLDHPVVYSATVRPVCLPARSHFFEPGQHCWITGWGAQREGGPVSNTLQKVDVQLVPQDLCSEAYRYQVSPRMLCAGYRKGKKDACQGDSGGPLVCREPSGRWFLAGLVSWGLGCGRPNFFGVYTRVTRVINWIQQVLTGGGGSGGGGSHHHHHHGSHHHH

B1: NORI-006 (antibody, human IgG4 S228P, kappa, V domains shown)
VH: EVQLVESGGGLIKPGRSLRLSCTGSGFTFGDFGLSWFRQAPGKGLEWISFIRSKPYGGTTDYAASVKGRFTISRDDSKNVAYLQMNSLKTEDTAVYYCARNEILTGYYIFDYWGQGTLVTVSS
VL: DIQMTQSPSSLSASLGDRVTITCQASQDINNYLNWYQVQPGKAPKLLIFDASILETGVPSRFSGSGSGTDFSFTISSLQPEDIATYYCQQYDNLPLTFGGGTKVDFKR
notes: human IgG4PE, kappa
B2: NORI-003 (antibody, human IgG4 S228P, kappa, V domains shown)
VH: EVQLVESGGGLVKPGRSLRLSCTGSGFTFGDFGMSWFRQAPGKGLEWVGFIRSKPYGGTTDYAPSVRGRFSISRDDSKGIVYLQMNSLRTEDTAVYYCSRNEILTGYYIFDYWGQGTLVTVSS
VL: B1 VL with Q27H, N30T, N34I, V38Q, Q39K, K45R, S72T, I83F, D92Y, F106I
notes: human IgG4PE, kappa; NORI-002 with the free cysteine of the VH domain mutated (printed as 'C49C')
B3: NORI-011 (antibody, human IgG4 S228P, lambda)
heavy: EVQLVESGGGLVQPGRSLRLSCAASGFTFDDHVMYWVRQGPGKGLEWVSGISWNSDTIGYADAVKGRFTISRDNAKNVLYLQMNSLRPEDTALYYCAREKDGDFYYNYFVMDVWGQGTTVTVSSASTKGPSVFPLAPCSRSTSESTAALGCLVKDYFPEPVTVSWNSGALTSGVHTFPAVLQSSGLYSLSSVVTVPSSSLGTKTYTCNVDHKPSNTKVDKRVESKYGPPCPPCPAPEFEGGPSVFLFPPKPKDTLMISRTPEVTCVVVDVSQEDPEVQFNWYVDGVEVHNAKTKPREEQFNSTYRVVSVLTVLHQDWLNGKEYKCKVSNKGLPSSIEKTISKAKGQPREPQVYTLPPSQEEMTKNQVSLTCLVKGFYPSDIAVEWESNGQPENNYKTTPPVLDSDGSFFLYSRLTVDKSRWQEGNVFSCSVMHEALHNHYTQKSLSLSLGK
light: QSALTQPPSASGSPGQSVTISCTGTSSDVGFYNFVSWYQQHPDKAPKVMIYEVSKRPSGVPDRFSGSKSGNTASLTVSGLQAEDEADYYCSSYAGSNKVVFGGGTKLTVLGQPKAAPSVTLFPPSSEELQANKATLVCLISDFYPGAVTVAWKADSSPVKAGVETTTPSKQSNNKYAASSYLSLTPEQWKSHRSYSCQVTHEGSTVEKTVAPTECS
notes: human IgG4PE, lambda; NORI-010 with a P124S mutation in the VH domain
B4: NORI-008 (antibody, human IgG4 S228P, kappa, V domains shown)
VH: QVQLQESGPGLVKPSETLSLTCSVSGGSVSSGRYYWTWIRQPPGKGLEWIGYISNSGNTNYNPSLKSRVTISLDTSKKQFSLSLSAVTAADTAVYYCARGFIYDYWFDPWGQGSLVTVSS
VL: DSQMTQSPSSLSASVGDRVTITCQASQDIDNYLNWYQQRPGKAPKLLIYDASKLETGVPSRFSGSGSGTDFTFTISSLQPEDFATYYCQQYGNLPITFGQGTRLDIKR
notes: human IgG4PE, kappa, in the in vitro assays; a mouse IgG1 format was used in one in vivo study only; also called NORI-008 hulgG4PE; NORI-008 IgG
B5: NORI-013 (antibody, human IgG4 S228P, lambda, V domains shown)
VH: EVQLVESGGGLIQAGRSLRLSCAASGFTFDEHVIYWVRQIPGKGLEWISSISWKSDIIAYADSVKGRFTISRDNAKNALYLQMNSLRAEDTALYYCAREKDGDFYYYYFAMDVWGQGTTVTVSS
VL: QSALTQPPSASGSPGQSVTLSCTGTSSDVGYYNYVSWYLQHPGKAPKLMIYEVSKRPSGVPDRFSGSKSANTASLTVSGLQAEDEADYYCSSYAGSNKVVFGGGTKVTVLG
notes: human IgG4PE, lambda
B6: NORI-014 (antibody, human IgG4 S228P, lambda, V domains shown)
VH: B5 VH with I34M, S52T
VL: B5 VL
notes: human IgG4PE, lambda

What was measured:
[1] = biological target: T1, human matriptase-2 mask ECD protein his …; experiment: SPR (Table W)
Protocol: (§1) Off-rate screening was performed by surface plasmon resonance (SPR), using a Biacore 8K system (GE Healthcare). Anti-human Fc mix (˜1000 RU) were immobilised in both active and reference channels in HBS-P+ buffer (GE BR100671) pH 7.4. Anti-MTP-2 hulgG4PE antibodies were then captured for 60 sec at 10 μl/min at 1 μg/ml concentration (approximatively 35 and 50 RU were captured) only on the active channel. MTP-2 ECD protein analytes were then injected (at 100, 25, 6.25, 1.56 and 0 nM concentrations) for 120 sec (association time) at 30 μl/min and dissociation monitored for 600 sec. Multiple cycle kinetics mode was used with all 8 channels being used. Reference and background were subtracted from the sensorgrams for each antibody and data was fitted using a 1:1 interaction model in the Biacore evaluation software. Rmax, ka, kd globally fitted, RI=0.
NORI-011, NORI-008, NORI-003 and NORI-006 were all found to have cross-reactive binding to human, mouse, cyno and rat MTP-2 ECD proteins. […] The true KD value for NORI-008 could not be measured accurately for human or mouse MTP-2 due to a very slow off-rate.

[2] = biological target: T2, mouse matriptase-2 ECD protein his tag; experiment: SPR (Biacore 8K), huIgG4PE captured on anti-human Fc, MTP-2 ECD as analyte, 1:1 fit
Protocol: as §1

Binder	binding result [1]	Binding Late top conc [2]	Kd [2] [nM]	Stoichiometry [2]	koff [2] [s⁻¹]	kon [2] [M⁻¹ s⁻¹]
B1	no binding					
B2	no binding					
B3	no binding					
B4	no binding	39.2	0.129	0.86	3.05e-05	237000
B5		7.5		1.47		10500
B6		5.4		0.93		12100
